Source: PMC10287905, “Proper RPA acetylation promotes accurate DNA replication and repair” (Nucleic Acids Research, 2023)

How the values were obtained:
Test in all cases: MST; RED-tris-NTA labelled 6xHis-Rtt105 at constant 100 nM, serial dilutions of RPA complex from 200 to 0.0058 nM; 1x PBS with 0.05% Tween 20; 50 min at room temperature; Monolith NT.115
Details in all cases: both partners purified
WT RPA complex = target: T1, WT RPA complex (yeast, UniProt P22336 1-621; P26754 1-273; P26755 1-122)
T1 construct: Rfa1, largest subunit of yeast RPA; Rfa2, subunit of yeast RPA; Rfa3, subunit of yeast RPA; the MST methods say only 'RPA complex'; source: purified from yeast cells; copies: + +

4KQ RPA complex = target: T2, 4KQ RPA complex (yeast, UniProt P22336 1-621; P26754 1-273; P26755 1-122, K259Q | K427Q | K463Q | K494Q)
T2 construct: Rfa1, largest subunit of yeast RPA, four lysines mutated to glutamine; Rfa2, subunit of yeast RPA; Rfa3, subunit of yeast RPA; also called 4KQ mutant RPA; source: purified from yeast cells; copies: + +

4KR RPA complex = target: T3, 4KR RPA complex (yeast, UniProt P22336 1-621; P26754 1-273; P26755 1-122, K259R | K427R | K463R | K494R)
T3 construct: Rfa1, largest subunit of yeast RPA, four lysines mutated to arginine; Rfa2, subunit of yeast RPA; Rfa3, subunit of yeast RPA; also called 4KR mutant RPA; source: purified from yeast cells; copies: + +
T3 sequence (P22336 whole entry K259R/K427R/K463R/K494R, chain 1 of 3): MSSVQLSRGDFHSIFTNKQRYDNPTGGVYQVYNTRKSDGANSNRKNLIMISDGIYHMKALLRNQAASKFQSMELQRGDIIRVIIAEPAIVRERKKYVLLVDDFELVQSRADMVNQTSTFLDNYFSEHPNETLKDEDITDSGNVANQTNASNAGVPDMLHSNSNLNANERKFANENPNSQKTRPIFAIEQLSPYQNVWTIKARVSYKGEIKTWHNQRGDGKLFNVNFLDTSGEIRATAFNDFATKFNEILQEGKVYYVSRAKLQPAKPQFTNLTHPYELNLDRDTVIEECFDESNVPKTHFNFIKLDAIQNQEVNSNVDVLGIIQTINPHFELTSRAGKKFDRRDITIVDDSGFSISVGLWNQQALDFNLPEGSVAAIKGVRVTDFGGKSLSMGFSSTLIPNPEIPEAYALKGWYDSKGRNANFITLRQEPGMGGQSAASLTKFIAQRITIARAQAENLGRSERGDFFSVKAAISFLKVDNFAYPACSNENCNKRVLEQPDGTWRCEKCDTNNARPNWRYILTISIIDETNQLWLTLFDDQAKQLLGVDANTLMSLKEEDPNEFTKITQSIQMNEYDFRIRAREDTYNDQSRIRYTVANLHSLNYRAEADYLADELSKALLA
T3 sequence (P26754 whole entry, chain 2 of 3): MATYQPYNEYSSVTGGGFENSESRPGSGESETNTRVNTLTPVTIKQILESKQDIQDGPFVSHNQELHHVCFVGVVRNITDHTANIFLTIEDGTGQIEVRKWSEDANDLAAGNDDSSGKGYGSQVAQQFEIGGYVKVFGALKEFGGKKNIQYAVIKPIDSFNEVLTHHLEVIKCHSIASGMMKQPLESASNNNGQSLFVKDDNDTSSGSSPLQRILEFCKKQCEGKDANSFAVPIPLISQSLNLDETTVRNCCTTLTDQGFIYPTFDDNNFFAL
T3 sequence (P26755 whole entry, chain 3 of 3): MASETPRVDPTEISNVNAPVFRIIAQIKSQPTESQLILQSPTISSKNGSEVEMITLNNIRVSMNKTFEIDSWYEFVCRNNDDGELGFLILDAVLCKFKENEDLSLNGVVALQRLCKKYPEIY

T1 sequence (P22336 whole entry, chain 1 of 3): as the sequence (P22336 whole entry K259R/K427R/K463R/K494R, chain 1 of 3) above, with R259K, R427K, R463K, R494K counted along it
T1 sequence (P26754 whole entry, chain 2 of 3): as the sequence (P26754 whole entry, chain 2 of 3) above
T1 sequence (P26755 whole entry, chain 3 of 3): as the sequence (P26755 whole entry, chain 3 of 3) above
T2 sequence (P22336 whole entry K259Q/K427Q/K463Q/K494Q, chain 1 of 3): as the sequence (P22336 whole entry K259R/K427R/K463R/K494R, chain 1 of 3) above, with R259Q, R427Q, R463Q, R494Q counted along it
T2 sequence (P26754 whole entry, chain 2 of 3): as the sequence (P26754 whole entry, chain 2 of 3) above
T2 sequence (P26755 whole entry, chain 3 of 3): as the sequence (P26755 whole entry, chain 3 of 3) above

- Kd (WT RPA complex): ~1.06 nM
- Kd (4KQ RPA complex): ~0.51 nM
- Kd (4KR RPA complex): ~1.17 nM
B1: 6xHis-Rtt105 (natural protein, yeast, UniProt P40063 1-208, looked up)
chain: MYSNHNLNSDDCCFDWNEEKAAELQRTGVSFDRSLTPQSLRTSTRRLSEENKQQSGTMHIDTSPSVVSDIISSRRDRSQDFFGPHSSSPIAPSERQRADQRSRLESMRLTRRRDKMTKVRGGLEKMEEMIMQGEHLREMQRLKQEAQKNALPSDMAEYMEWQNNEDLEDDELLAFIEKQETYKNELEHFLNNANKNVYENNSYPNSHT
modifications: labelled with a RED-tris-NTA protein labelling kit
notes: Rtt105, yeast RPA chaperone protein
